Laboratory results as given in US20200055935A1 (AGENCY FOR SCIENCE TECHNOLOGY AND RESEARCH, published 2020).
Numbering of substitutions follows the chain as printed.

B1: anti-TIM-3 antibody clone 1H10 (antibody, V domains shown)
VH: QVQLQQWGAGLLKPSETLSLTCAVYGGSFSGYYWSWIRQPPGKGLEWIGEINHSGSTNYNPSLKSRVTISVDTSKNQFSLKLSSVTAADTAVYYCARGYVAGFDSWGQGTLVTVSS
VL: QSVLTQPPSVSAAPGQKVTISCSGSSSNIGNNYVSWYQQLPGTAPKLLIYGNNWRPSGIPDRFSGSKSGTSATLGITGLQTGDEADYYCDSWDYDYAAGVFGGGTKLTVL
B2: anti-TIM-3 antibody clone 1F4 (antibody, V domains shown)
VH: B1 VH with F103Y, S105Y
VL: B1 VL with Y94A, D95A, Y96L, A97S
B3: anti-TIM-3 antibody clone 2F4 (antibody, V domains shown)
VH: B1 VH with F103S, S105A
VL: B1 VL with D90E, A98S
B4: anti-TIM-3 antibody clone 2C7 (antibody, V domains shown)
VH: B1 VH with F103Y, S105Y
VL: B1 VL with Y94S, D95Y, Y96L
B5: anti-TIM-3 antibody clone 1H9 (antibody, V domains shown)
VH: B1 VH with S105D
VL: B1 VL with Y94S, D95A, Y96D, A98S
B6: anti-TIM-3 antibody clone 1B9 (antibody, V domains shown)
VH: B1 VH with F103S, S105A
VL: B1 VL with D90E, S91A, D95Y, Y96V, V100Y
notes: also called 169
B7: anti-TIM-3 antibody clone 1D9 (antibody, V domains shown)
VH: B1 VH with V100Y, F103D, S105Y
VL: B1 VL with D90E, S91A, Y94S, D95A, V100S
B8: anti-TIM-3 antibody clone 2G6 (antibody, V domains shown)
VH: B1 VH
VL: B1 VL with Y94S, D95S, Y96D, A97S, A98S

Molecular target: T1, human TIM-3 coupled to Fc (human, UniProt Q8TDQ0 22-200, limits assumed)
T1 construct: Immobilised on the SPR sensor chip; not shown: Fc part
Experiment: SPR (ProteOn XPR36), human TIM-3-Fc immobilised, antibody in flow
Method: In order to select some leads amongst the ELISA-positive clones, TIM-3 association/dissociation profiles were analysed by Surface Plasmon Resonance (SPR). Briefly, human TIM-3 coupled to Fc was immobilised on sensor chip and the antibodies were then applied as a flow onto the chip. Association and dissociation rates were recorded using a ProteOn XPR36 bioanalyser (Biorad). Nine clones (1B9, 1H9, 1H10, 2C7, 2F4, 2G6, 1D9, 1F4, 2C8) were selected based on their rapid/strong association to TIM-3 and their slow dissociation from the protein (FIG. 5).

Binding result, binds:
B1
B2
B3
B4
B5
B6
B7
B8
